Measured values reported in patent publication US20130245102, “NOVEL DNA TEMPLATES FOR SMALL RNA PRODUCTION IN MAMMALIAN CELLS” (Research Foundation of the City University of New York, published 2013).

Columns and labels:
[1] = tested on: RNA polymerase III (Homo sapiens); conditions: HEK293T WCE transcription; mainly single round
[2] = tested on: TS2126 RNA ligase 1 (Bacteriophage TS2126); conditions: 5' phosphate; splintless circularization, 2.5 mM MnCl2, 50 uM ATP, 60 C, 2 h
[3] = tested on: RNA polymerase III (Homo sapiens); conditions: 90 min IVT from 100 nM coligo; 6 mM MgCl2; abolished by 120 ug/ml alpha-amanitin
RNA polymerase II = RNA polymerase II (UniProt P04050;P08518;P16370;P20433;P20434;P20435;P34087;P20436;P27999;P22139;P38902;P40 …); assay: in vitro transcription processivity, 1 uM template, 37 C; conditions: tags: yeast RNAP II from D. Bushnell and R. Kornberg; circular, stem-loop
Excerpt: (§1) Chem. Soc. 117, 7818-7819 (1995)) (FIG. 5b, gel region “a”). As a relative measure of transcriptional processivity, we calculated the ratio of the radioactivity incorporated in the rolling circle transcripts (FIG. 5b, gel region “a” in lanes 3, 6, 9) to the sum of all shorter transcripts (gel region “b”). Lower a/b ratios indicate lower processivity. […] Thus, the ability to initiate promoterless transcription on coligo templates appears to have been retained during RNAP evolution, while the processivity needed for RCT appears to have been lost.
(§2) In vitro transcription (IVT). IVT using WCE, uniform labeling with [α-³²P]-UTP and the linear or circular (coligo) templates was performed as follows. A typical 20 μl reaction contained 25 μg total WCE protein, 20 units RNase inhibitor (Promega) 1.25 mM each ATP, CTP, GTP, 0.2 mM UTP, (except FIG. 5b, which contained 1.25 mM each NTP), ˜2 μCi [α-³²P]-UTP, 40 mM Tris-HCl pH 7.9, 6 mM MgCl₂, 10 mM DTT, 2 mM spermidine, 100 μM NaCl); 100 nM template unless otherwise indicated. IVT using E. coli RNA polymerase (USB) was carried out in 40 mM Tris-HCl, pH 8.0, 10 mM MgCl₂, 5 mM DTT, 50 mM KCl, 50 μg/ml BSA), 1 μM coligo template, 1.25 mM NTP, ˜2 μCi [α-³²P]-UTP, 1 unit/μl RNAse inhibitor. […] Images and quantitation were performed using MD ImageQuant software. […]

RNA polymerase = RNA polymerase (Escherichia coli, UniProt P0A7Z4;P0A8V2;P0A8T7;P0A800 P0A7Z4:1-329,P0A8V2:1-1342,P0A8T7:1-1407,P0A800:2-91); assay: in vitro transcription processivity, 10 mM MgCl2, 37 C; conditions: tags: USB; chain copies: 2,1,1,1; circular, stem-loop
Excerpt: as §1, §2

Chain of RNA polymerase (P0A7Z4 whole entry, chain 1 of 4): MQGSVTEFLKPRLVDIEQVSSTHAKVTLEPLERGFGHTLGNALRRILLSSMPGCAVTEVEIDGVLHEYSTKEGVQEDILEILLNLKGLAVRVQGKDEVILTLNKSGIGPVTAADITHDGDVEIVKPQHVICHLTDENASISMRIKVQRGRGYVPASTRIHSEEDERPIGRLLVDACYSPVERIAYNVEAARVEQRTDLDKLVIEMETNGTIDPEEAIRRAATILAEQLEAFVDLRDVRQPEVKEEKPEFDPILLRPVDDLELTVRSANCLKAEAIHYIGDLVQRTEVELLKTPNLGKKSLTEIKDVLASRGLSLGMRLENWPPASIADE
Chain of RNA polymerase (P0A8V2 whole entry, chain 2 of 4): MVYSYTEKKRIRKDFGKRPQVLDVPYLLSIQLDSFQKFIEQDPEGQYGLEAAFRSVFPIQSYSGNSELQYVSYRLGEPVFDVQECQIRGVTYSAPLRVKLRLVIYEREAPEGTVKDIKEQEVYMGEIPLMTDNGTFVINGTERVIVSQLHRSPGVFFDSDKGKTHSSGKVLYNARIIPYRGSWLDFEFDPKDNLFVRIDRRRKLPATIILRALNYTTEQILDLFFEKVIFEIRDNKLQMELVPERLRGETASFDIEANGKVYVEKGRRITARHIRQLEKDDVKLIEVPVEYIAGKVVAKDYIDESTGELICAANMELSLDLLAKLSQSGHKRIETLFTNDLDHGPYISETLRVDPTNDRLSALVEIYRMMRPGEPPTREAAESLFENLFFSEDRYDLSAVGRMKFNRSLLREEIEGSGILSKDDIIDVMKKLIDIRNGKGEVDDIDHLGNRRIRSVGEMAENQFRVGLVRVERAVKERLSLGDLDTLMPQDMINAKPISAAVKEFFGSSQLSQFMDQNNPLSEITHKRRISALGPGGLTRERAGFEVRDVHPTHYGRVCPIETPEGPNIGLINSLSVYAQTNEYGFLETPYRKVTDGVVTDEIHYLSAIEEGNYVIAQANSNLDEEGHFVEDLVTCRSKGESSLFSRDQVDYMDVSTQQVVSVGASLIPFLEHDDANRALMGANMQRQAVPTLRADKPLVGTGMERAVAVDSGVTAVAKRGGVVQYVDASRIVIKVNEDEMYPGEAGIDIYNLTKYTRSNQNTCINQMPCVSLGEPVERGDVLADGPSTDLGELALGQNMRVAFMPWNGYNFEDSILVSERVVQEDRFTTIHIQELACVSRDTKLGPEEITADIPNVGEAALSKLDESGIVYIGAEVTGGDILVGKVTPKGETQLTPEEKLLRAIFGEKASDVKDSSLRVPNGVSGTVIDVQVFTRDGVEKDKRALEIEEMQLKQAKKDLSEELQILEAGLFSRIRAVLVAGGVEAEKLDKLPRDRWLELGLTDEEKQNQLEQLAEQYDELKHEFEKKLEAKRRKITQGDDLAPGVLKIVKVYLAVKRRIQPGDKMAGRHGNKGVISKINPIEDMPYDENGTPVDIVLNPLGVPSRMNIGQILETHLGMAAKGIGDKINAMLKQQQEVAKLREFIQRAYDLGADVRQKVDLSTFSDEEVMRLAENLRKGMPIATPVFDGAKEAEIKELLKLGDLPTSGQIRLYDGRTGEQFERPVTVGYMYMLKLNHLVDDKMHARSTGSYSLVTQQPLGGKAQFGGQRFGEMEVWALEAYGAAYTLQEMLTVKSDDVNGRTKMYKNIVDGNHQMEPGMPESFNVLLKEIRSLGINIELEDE
Chain of RNA polymerase (P0A8T7 whole entry, chain 3 of 4): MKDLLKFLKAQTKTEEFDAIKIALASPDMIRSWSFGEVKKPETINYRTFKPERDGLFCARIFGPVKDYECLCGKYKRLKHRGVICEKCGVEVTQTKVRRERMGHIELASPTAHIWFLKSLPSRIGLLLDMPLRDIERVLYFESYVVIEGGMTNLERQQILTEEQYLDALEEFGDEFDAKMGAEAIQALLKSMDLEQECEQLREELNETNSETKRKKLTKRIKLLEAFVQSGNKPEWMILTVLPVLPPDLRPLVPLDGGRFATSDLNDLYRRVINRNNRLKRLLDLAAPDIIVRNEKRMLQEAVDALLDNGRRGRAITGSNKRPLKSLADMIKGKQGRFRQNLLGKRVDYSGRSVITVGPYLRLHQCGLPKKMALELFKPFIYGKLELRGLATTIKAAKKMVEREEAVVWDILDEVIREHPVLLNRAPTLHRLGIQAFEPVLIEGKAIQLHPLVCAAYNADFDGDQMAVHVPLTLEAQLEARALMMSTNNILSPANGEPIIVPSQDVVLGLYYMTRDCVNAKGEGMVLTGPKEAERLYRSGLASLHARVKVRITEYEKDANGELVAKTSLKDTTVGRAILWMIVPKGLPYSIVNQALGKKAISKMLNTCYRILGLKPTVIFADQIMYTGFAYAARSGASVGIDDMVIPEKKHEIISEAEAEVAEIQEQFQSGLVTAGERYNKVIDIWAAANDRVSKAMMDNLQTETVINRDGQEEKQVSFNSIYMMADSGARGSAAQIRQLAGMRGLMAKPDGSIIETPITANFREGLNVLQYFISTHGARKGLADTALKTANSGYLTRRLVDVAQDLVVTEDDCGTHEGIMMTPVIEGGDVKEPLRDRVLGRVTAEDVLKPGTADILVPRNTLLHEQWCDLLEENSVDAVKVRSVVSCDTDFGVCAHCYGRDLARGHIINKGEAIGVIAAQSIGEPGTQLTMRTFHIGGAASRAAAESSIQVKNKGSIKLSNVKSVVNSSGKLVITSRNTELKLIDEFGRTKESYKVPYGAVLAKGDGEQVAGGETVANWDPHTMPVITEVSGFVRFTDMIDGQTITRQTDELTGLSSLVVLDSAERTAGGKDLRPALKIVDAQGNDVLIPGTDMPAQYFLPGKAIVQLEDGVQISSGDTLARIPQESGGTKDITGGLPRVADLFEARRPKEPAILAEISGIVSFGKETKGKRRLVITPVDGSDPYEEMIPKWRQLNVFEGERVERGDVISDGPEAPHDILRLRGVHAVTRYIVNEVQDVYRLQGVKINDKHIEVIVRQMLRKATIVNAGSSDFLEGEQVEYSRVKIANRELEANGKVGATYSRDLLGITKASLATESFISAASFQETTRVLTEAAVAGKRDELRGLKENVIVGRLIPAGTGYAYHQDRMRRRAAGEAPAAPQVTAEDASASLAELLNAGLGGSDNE
Chain of RNA polymerase (P0A800 2-91, chain 4 of 4): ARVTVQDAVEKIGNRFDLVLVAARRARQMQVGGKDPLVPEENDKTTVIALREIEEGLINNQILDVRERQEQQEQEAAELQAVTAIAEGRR

“TTGCCTAGCAGTAGCTATTTAGTGTGATAATGGCGTTTGATAGTTTAGACACAAACACCATTGTCACACTCCACAGCTCTGCTAAGGAA [coligo 122]” was tested, and the binding signal (RCT/short transcript ratio) [1] was 0.01.

“CTCAGATCTGCCTGCAACTATGCAAAACTAACAGAGGACTGCAAACAAAAACTAGAAGGAAATAGCAGGCCACCATCAGTTTTGCATAGATTTGCACAACGGCAGAGAGCTCCCAGG [linear 19aTAR]” gave an activity (% cyclization) [2] of 73.

“CTCAGATCTGCCTGCAACTATGCAAAACTAACAGAGGACTGCAAACAAAAACTAGAAGGAAATAGCAGGCCACCATCAGTTTTGCATAGATTTGCACAACGGCAGAGAGCTCCCAGG [coligo 19aTAR (19am)]” gave an activity (nM transcript) [3] of 0.6.

B1: coligo 122 (structured_DNA)
DNA: TTGCCTAGCAGTAGCTATTTAGTGTGATAATGGCGTTTGATAGTTTAGACACAAACACCATTGTCACACTCCACAGCTCTGCTAAGGAA
With B1 the “transcriptional processivity (rolling-circle/short transcript ratio)” value (RNA polymerase II) was 0.3 RCT/short transcript ratio and the binding signal (RNA polymerase) was 2.3 RCT/short transcript ratio.
